Legend:
[1] = biological target: 16055 NFL TD 2CC+ trimer (HIV-1 (strain 16055)); test: cryo-EM structure
[2] = biological target: BG505 NFL CC+ trimer (HIV-1 (strain BG505)); test: cryo-EM structure

| Substance | stoichiometry N [1] | stoichiometry N [2] |
| --- | --- | --- |
| 16055 NFL TD 2CC+ trimer (domain or fragment) | 3 | – |
| BG505 NFL CC+ trimer (domain or fragment) | – | 3 |

Source: publication PMC6891888
